Laboratory results: paper PMC10412574, “Auranofin targets UBA1 and enhances UBA1 activity by facilitating ubiquitin trans-thioesterification to E2 ubiquitin-conjugating enzymes” (Nature Communications, 2023)

T1: recombinant UBE2G2 (UniProt P60604 1-165)
T1 construct: UBE2G2, ubiquitin-conjugating enzyme E2 G2, recombinant; Called His-UBE2G2 only in the charging assays; no tag is named for the pull-downs; also called His-UBE2G2; source: bought: R&D Systems (E2-680-100)
T1 sequence: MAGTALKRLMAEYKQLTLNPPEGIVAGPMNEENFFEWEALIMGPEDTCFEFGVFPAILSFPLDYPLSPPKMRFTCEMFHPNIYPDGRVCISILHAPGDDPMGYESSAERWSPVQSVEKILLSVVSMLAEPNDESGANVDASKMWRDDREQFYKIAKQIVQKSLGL

T2: recombinant UBE2K (UniProt P61086 1-200)
T2 construct: UBE2K, ubiquitin-conjugating enzyme E2 K, recombinant; source: bought: R&D Systems (NBP2-35096)
T2 sequence (looked up): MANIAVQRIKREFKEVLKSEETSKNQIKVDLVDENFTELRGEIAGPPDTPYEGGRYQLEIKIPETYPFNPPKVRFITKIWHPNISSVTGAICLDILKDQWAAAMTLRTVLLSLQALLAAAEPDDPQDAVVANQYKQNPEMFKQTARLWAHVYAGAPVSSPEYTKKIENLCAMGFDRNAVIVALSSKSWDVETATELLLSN

B1: MBP-UFD (C1040A) (domain or fragment)
chain: not shown
notes: UBA1 ubiquitin fold domain (UFD), aa942-1058, with C1040A; also called MBP-UFD with cysteine mutation; source: recombinant
B2: MBP-UFD (942-1058) (domain or fragment)
chain: not shown
notes: UBA1 C-terminal ubiquitin fold domain (UFD), aa942-1058; The pull-down methods name the construct 'AAD-UFD'; also called UFD fragment of UBA1
B3: MBP-UFD (C1039A) (domain or fragment)
chain: not shown
notes: UBA1 ubiquitin fold domain (UFD), aa942-1058, with C1039A; also called MBP-UFD with cysteine mutation; source: recombinant

What was measured:
recombinant UBE2G2 = biological target: T1, recombinant UBE2G2; test: pull-down; MBP fusions of UBA1 fragments (5 ug) on beads, treated with AF 1.5 h and washed, then incubated with recombinant E2 2 h at room temperature in 150 mM NaCl, 10 mM Tris/HCl pH 7.4, 1 mM EDTA, 1 mM EGTA, 0.2% NP-40; immunoblot; in Fig. 2a also after iodoacetamide or with DTT; conditions: both partners purified
recombinant UBE2K = biological target: T2, recombinant UBE2K; test: as above; conditions: both partners purified

| Binder | binding result (recombinant UBE2G2) | binding result (recombinant UBE2K) |
| --- | --- | --- |
| B1 | binds |  |
| B2 | binds | binds |
| B3 | binds |  |
